Each block holds one binder with its values, some of them ahead of it.
B3: C-terminal His6-tagged human Bak (residues 23–185;C166S) (domain or fragment, UniProt Q16611 23-185, looked up)
chain: SEEQVAQDTEEVFRSYVFYRHQQEQEAEGVAAPADPEMVTLPLQPSSTMGQVGRQLAIIGDDINRRYDSEFQTMLQHLQPTAENAYEYFTKIATSLFESGINWGRVVALLGFGYRLALHVYQHGLTGFLGQVTRFVVDFMLHHSIARWIAQRGGWVAALNLGN
notes: also called recombinant Bak; source: E. coli BL21(DE3) RIL, purified (Ni-NTA, Superdex 75 gel filtration); not shown: His6, C-terminal, kept

Columns and labels:
[1] = molecular target: T1, recombinant human Bax (residues 1–172;C62S·C126S) (human, UniProt Q07812 1-172, C62S | C126S); assay: SEC; separately purified proteins mixed at a molar ratio of 1:3, incubated for 1 h; Superdex 200 increase 10/300 GL; no detergent; peak fractions on SDS–PAGE; conditions: both partners purified
T1 construct: Bax, human, residues 1-172 with C62S and C126S, cloned into pET21a-m1; also called recombinant Bax; source: E. coli BL21(DE3) RIL, purified (Ni-NTA, Superdex 75 gel filtration)
T1 sequence (Q07812 1-172 C62S/C126S): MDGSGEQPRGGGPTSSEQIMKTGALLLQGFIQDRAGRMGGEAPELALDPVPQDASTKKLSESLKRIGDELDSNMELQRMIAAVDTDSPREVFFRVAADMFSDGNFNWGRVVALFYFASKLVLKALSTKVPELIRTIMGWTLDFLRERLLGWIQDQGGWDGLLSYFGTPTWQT

[2] = molecular target: B3; assay: ITC; Pxt1 peptide (0.8 mM) titrated into 80 μM recombinant Bak; no detergent; performed as in ref. 27; conditions: both partners purified
[3] = molecular target: the molecule itself; assay: SEC; 100 μM Bak, 1 mM Pxt1 BH3 peptide and 1% CHAPS; Superdex 75 10/300 GL

binding result [1]: binds
B1: human Pxt1(76–101) BH3 fragment, separately purified, as mixed with recombinant Bax (peptide, UniProt Q8NFP0 76-101, looked up)
chain: EEIIHKLAMQLRHIGDNIDHRMVRED
notes: Pxt1, human, BH3 domain, residues 76-101, cloned into pET21a-m2; it is surmised to be the recombinant pET21a-m2 product and not the synthetic peptide; also called Pxt1 BH3 fragment; human Pxt1 BH3 domain; source: separately purified (the recombinant construct was made in E. coli BL21(DE3) RIL)

Kd [2]: 15.4 µM
B2: synthetic human Pxt1(76–101) peptide (peptide, UniProt Q8NFP0 76-101, looked up)
peptide: EEIIHKLAMQLRHIGDNIDHRMVRED
notes: Pxt1, human, residues 76-101; also called human Pxt1 BH3; Pxt1 BH3 peptide; source: synthetic peptide (Peptron, Korea)

Binder: B3
stoichiometry N [3]: 2

— PMC10298792, “Structural basis for proapoptotic activation of Bak by the noncanonical BH3-only protein Pxt1” (PLOS Biology, 2023)
